Results on three molecules are retold here after patent US20240101647A1 (VIB VZW, published 2024).

Assay [1] has as its target T1, monomeric human Fc-fused SARS-CoV-2_RBD-SD1 (SARS-CoV-2, UniProt P0DTC2 319-591).
The target of assay [2] is T1, monomeric human Fc-fused …. Briefly: ELISA with periplasmic extract, RBD captured by VHH72-Fc. For orientation: In an ELISA, binding on a coated surface is turned into a signal by an enzyme label.

B1: VHH3.183 (VHH)
VHH: QVQLQESGGGLVQPGGSLRLSCAASGLDYYAIGWFRQAPGKEREGLSRIESSDGSTYYADSVKGRFTISRDNTKNTVYLQMNSLKPEDTAVYYCATDPIIQGSSWYWTSWGQGTQVTVSS
As for B1, in assay [1], the koff was found to be 0.0014 s⁻¹.

B2: VHH3.94 (VHH)
VHH: QVQLQESGGGLVQPGGSLRLSCAASGKAVSISDMGWYRQPPGKQRELVATITKSGSTNYANSAQGRFTISRDNAKSAVYLEMNSLKPEDTAVYYCNAWLPYGMGPDYYGMELWGEGTQVTVSS
On to B2, for which the binding result in assay [2] was “binds”.

B3: VHH3.89 (VHH)
VHH: QVQLQESGGGLVQPGGSLRLSCAASGFTLDYYAIGWFREVPGKEREGLSRIDSSDGSTYYADSVKGRFTISRDNTKNIVYLQMNNLKPEDTAVYYCATDPIIQGRNWYWTGWGQGTQVTVSS
B3 had a dissociation constant Kd in assay [1] of 0.292 nM. In other words, the sub-nanomolar range.

In general, koff refers to the first-order rate constant of dissociation. A word on the Kd: it is the equilibrium constant for the complex coming apart. Read a low Kd as higher affinity.
